Paper PMC8217500, “Sequence signatures of two public antibody clonotypes that bind SARS-CoV-2 receptor binding domain” (Nature Communications, 2021)

How the values were obtained:
[1] = molecular target: T1, Fc-tagged SARS-CoV-2 receptor-binding domain (RBD), wild type (SARS-CoV-2, Wuhan-Hu-1 (QHD43416.1), UniProt P0DTC2); assay: BLI; Fc-tagged RBD (20 ug/ml) loaded on anti-hIgG Fc Capture (AHC) biosensors, Fab in solution at four to five concentrations; Octet Red96e, room temperature, 1x kinetics buffer (1x PBS pH 7.4, 0.01% w/v BSA, 0.002% v/v Tween 20); 1:1 binding model; settings: both partners purified
T1 construct: also called SARS-CoV-2 RBD; WT RBD; not shown: Fc, C-terminal, kept

[2] = molecular target: T2, Fc-tagged SARS-CoV-2 spike receptor-binding domain (RBD) (SARS-CoV-2, Wuhan-Hu-1 (QHD43416.1), UniProt P0DTC2); assay: BLI; Fc-tagged RBD (20 ug/ml) loaded on anti-hIgG Fc Capture (AHC) biosensors, Fab in solution; room temperature; 1x PBS pH 7.4, 0.01% BSA, 0.002% Tween 20; 1:1 binding model; settings: both partners purified
T2 construct: also called SARS-CoV-2 RBD; Fc-tagged RBD; source: Expi293F, transiently transfected, purified (KanCapA protein A resin); not shown: Fc (after an SSSSG linker), C-terminal, kept

B1: COVA2-20 Y58F Fab (Fab, V domains shown)
VH: EVQLVESGGGLIQPGGSLRLSCAASGFTVSSNYMSWVRQAPGKGLEWVSVIYSGGSTFYADSVKGRFTISRDNSKNTLYLQMNSLRAEDTAVYYCASPLLLTPPDYYYYMDVWGKGTMVTVSS
VL: DVVMTQSPSSLSVSVGDRVTITCRASQGIRNDLGWYQQKPGKAPKRLIYAASSLQSGVPSRFSGSGSGTEFTLTISSLQPEDFATYYCLQHNSYLWTFGQGTKLEIK
In the case of B1, the Kd [1] is reported as 286 ± 17 nM.

B2: COVA2-20 Fab, F58 variant (heavy chain Y58F) (Fab, V domains shown)
VH: EVQLVESGGGLIQPGGSLRLSCAASGFTVSSNYMSWVRQAPGKGLEWVSVIYSGGSTFYADSVKGRFTISRDNSKNTLYLQMNSLRAEDTAVYYCASPLLLTPPDYYYYMDVWGKGTMVTVSS
VL: DVVMTQSPSSLSVSVGDRVTITCRASQGIRNDLGWYQQKPGKAPKRLIYAASSLQSGVPSRFSGSGSGTEFTLTISSLQPEDFATYYCLQHNSYLWTFGQGTKLEIK
notes: also called COVA2-20 F58
Work on B2 yielded a Kd [2] of 286 nM.

B3: COV107-23 F58Y Fab (Fab, V domains shown)
VH: EVQLVESGGGLIQPGGSLRLSCAASGFTVSSNYMSWVRQAPGKGLEWVSVIYSGGSTYYADSVKGRFTISRDNSKNTLYLQMNSLRAEDTAVYYCARDLGTGLFDYWGQGTLVTVSS
VL: DIQLTQSPSFLSASVGDRVTITCRASQGISSYLAWYQQKPGKAPKLLIYAASTLQSGVPSRFSGSGSGTEFTLTISSLQPEDFATYYCQQLDSYPPGTFGPGTKVDIK
For B3, the Kd [1] was 362 ± 18 nM.

B4: CC12.3 Fab, Y58 variant (heavy chain F58Y) (Fab, V domains shown)
VH: QVQLVESGGGLIQPGGSLRLSCAASGFTVSSNYMSWVRQAPGKGLEWVSVIYSGGSTYYADSVKGRFTISRDNSKSTLYLQMNSLRVEDTAVYYCARDFGDFYFDYWGQGTLVTVSS
VL: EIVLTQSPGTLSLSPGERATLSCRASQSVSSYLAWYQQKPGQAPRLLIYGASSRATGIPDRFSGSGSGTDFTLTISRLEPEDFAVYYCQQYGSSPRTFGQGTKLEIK
notes: also called CC12.3 Y58
With B4 the Kd [2] was 97 nM.

B5: CC12.3 F58Y Fab (Fab, V domains shown)
VH: QVQLVESGGGLIQPGGSLRLSCAASGFTVSSNYMSWVRQAPGKGLEWVSVIYSGGSTYYADSVKGRFTISRDNSKSTLYLQMNSLRVEDTAVYYCARDFGDFYFDYWGQGTLVTVSS
VL: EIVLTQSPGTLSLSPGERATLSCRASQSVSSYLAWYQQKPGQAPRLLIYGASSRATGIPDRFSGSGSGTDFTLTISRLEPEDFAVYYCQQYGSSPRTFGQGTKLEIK
B5 gave a Kd [1] of 97 ± 2 nM.
